Test results as given in article PMC11790859.

Molecular target: kalium channelrhodopsin 1 from Hyphochytrium catenoides, slow-cycling mutant C110A (HcKCR1_C110A) (Hyphochytrium catenoides)
Assay: cryo-EM structure

“kalium channelrhodopsin 1 from Hyphochytrium catenoides, slow-cycling mutant C110A (HcKCR1_C110A) (domain or fragment)” was tested, and the stoichiometry N was 3.
